According to paper PMC9812381 (Science Advances, 2023):

Biological target: T1, Cullin-5 (CUL5), residues 12-780 (human, UniProt Q93034 12-780)
T1 construct: source: E. coli BL21 (DE3), coexpressed with RBX2, purified (Ni-NTA, SEC); not shown: GB1, N-terminal, cleaved
T1 sequence: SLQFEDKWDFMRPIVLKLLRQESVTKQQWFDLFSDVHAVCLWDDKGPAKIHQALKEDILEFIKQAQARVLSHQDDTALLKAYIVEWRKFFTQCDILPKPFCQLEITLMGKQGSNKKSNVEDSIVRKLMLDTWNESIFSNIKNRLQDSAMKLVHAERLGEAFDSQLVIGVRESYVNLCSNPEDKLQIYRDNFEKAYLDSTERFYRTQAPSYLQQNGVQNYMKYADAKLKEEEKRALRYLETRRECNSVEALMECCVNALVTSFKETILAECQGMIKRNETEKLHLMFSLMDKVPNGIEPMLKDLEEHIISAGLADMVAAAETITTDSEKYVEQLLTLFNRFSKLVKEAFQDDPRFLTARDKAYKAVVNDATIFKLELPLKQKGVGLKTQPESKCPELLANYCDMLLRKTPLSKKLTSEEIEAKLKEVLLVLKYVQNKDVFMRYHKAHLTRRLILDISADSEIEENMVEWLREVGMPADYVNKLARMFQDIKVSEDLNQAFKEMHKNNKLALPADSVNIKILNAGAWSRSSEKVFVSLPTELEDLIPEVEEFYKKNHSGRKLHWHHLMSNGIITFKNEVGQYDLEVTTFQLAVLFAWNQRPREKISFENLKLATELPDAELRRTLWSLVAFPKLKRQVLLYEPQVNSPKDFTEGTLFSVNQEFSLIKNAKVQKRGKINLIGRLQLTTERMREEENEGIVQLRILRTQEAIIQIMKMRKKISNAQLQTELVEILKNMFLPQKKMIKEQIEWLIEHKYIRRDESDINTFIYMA
Experiment: cryo-EM structure
Conditions: both partners purified

B1: zinc finger RING-box protein 2 (RBX2), residues 1-113 (natural protein)
chain: MADVEDGEETCALASHSGSSGSKSGGDKMFSLKKWNAVAMWSWDVECDTCAICRVQVMDACLRCQAENKQEDCVVVWGECNHSFHNCCMSLWVKQNNRCPLCQQDWVVQRIGK
notes: source: E. coli BL21 (DE3), coexpressed with CUL5, purified (Ni-NTA, SEC)
B1: binds.
